Substrate in the series: O=[N+]([O-])c1ccc(Cl)c([N+](=O)[O-])c1
Put plainly: purified protein. The format is biochemical, Saccharina japonica. Particulars: GSH co-substrate (30 μL of 60 mM in 900 μL).

Setting [1] is: 0.1 M potassium phosphate pH 8.0, 20 °C.
Where [2] appears, read: 0.1 M potassium phosphate pH 7.0, 20 °C.

Broadly, the Km is the concentration of substrate that gives half-maximal velocity. As a reminder, the kcat is the number of substrate molecules converted per active site and unit of time at saturation. A word on the kcat/Km: it is the turnover number divided by the Michaelis constant.

B1: SjGST22 (Saccharina japonica) (protein)
chain: MAPKLVLTYFDIAGAAEAVRWALEQSGLEWEDKRLTRDEFGALKPSLPNGQVPILEVDGFVLAQSQAILRYVGKLGGLYPSDDLEAAKCDSVLDCATDFGINIRPSFMEKDQAKKMEMREDLAANFIPKWLASMEKQLASTGGIYFGEKMTVADIMIALRVKGLKGGVLDGVPTTIADSYPNLIALHDSIVGEPKIAAFIAKHAK
Consider B1, for which, under setting [1], the Km stood at 674 µM, the kcat was 0.478 s⁻¹ and the kcat/Km is 709 M⁻¹ s⁻¹.

B2: SjGST20 (Saccharina japonica) (protein)
chain: MVPVFNYFGVPARGEATRVALAVAGVEFVDKIIPYAELHASGFRAVPVYQLDGTNYTQSTALLRYAGKLGGTYPEDPLEALKVDEIVMMVEDVFINIFADMKEKDEAKKLATHQALIAGKVKYLIEDIASKLEANTASPFCVGPSLTIADIMVHAMIATFQAGFLVGVPTTTAEDICPSLKGLDDAVMEHPKVKAYYASKA
In the case of B2, under setting [2], the Km is 2706 µM, the kcat is 9.83 s⁻¹ and the specificity constant (kcat/Km) is 3630 M⁻¹ s⁻¹.
